System: pdx1+ cells
Test: Expansion of pdx1+ cells in non-adherent clusters of human pancreatic duct cells
Type: cell-based
Protocol: Pancreatic duct cells were isolated from human donor tissue, using the methods described in detail in Example 2. The cells were plated as non-adherent cell clusters in DMEM-F12 (pH 7.4), 2 mM glutamine, 1% penicillin-streptomycin, 2% B27 (Life Sciences Technologies) and 8 mM HEPES. Following 1-4 days in culture, the media was changed to DMEM-F12 (pH 6.9-7.1), 2 mM glutamine, 1% penicillin-streptomycin, and 2% B27 (Life Sciences Technologies). This media was supplemented with the following four factors: dexamethasone (10^−7-10^−9 M), forskolin (10 μM), insulin (20 μg/ml) and FGF-18 (20 ng/ml). The media was optionally supplemented with heparin which is often used to enhance the effects of FGF. The cells were cultured for a number of days in this supplemented media which was changed daily.
Following approximately one day in culture, Pdx1+ cells (a marker of pancreatic progenitor cells) began appearing on the surface of the non-adherent clusters. The size and number of Pdx1+ cells continues to increase for approximately 12 days. Following 8 to 12 days in culture under expansion conditions, non-adherent cell clusters containing an increased number of Pdx1+ cells were subjected to a differentiation protocol to produce insulin+, glucose responsive cell clusters.
This effect on pdx1 expression was further augmented if the follistatin-related factor follistatin or a combination of follistatin and the GLP-1 agonist exendin-4 was added to the above list of factors used to supplement the acidic culture medium. Briefly, cultures expanded in forskolin (a cAMP elevating agent), dexamethasone (a corticosteroid), insulin, FGF18 (a FGF family member), heparin (known to potentiate the activity of FGF family members), and follistatin (a follistatin-related factor) contained approximately 281 fold more pdx1+ cells than cells differentiated in the absence of the expansion protocol. […]

B1: follistatin (protein, UniProt P19883 30-344, looked up)
Follistatin: GNCWLRQAKNGRCQVLYKTELSKEECCSTGRLSTSWTEEDVNDNTLFKWMIFNGGAPNCIPCKETCENVDCGPGKKCRMNKKNKPRCVCAPDCSNITWKGPVCGLDGKTYRNECALLKARCKEQPELEVQYQGRCKKTCRDVFCPGSSTCVVDQTNNAYCVTCNRICPEPASSEQYLCGNDGVTYSSACHLRKATCLLGRSIGLAYEGKCIKAKSCEDIQCTGGKKCLWDFKVGRGRCSLCDELCPDSKSDEPVCASDNATYASECAMKEAACSSGVLLEVKHSGSCNSISEDTEEEEEDEDQDYSFPISSILEW
4 days basal medium, 4 days acidic expansion medium, before differentiation
  fold more pdx1+ cells than cells differentiated in the absence of the expansion protocol: approximately 281 fold
FIG. 5
  fold increase in total islet equivalents (IEs) versus multistep differentiation protocol alone: 281 fold
FIG. 6 and FIG. 7, added to expansion medium
  pdx1 expression versus expansion medium alone: increase in pdx1 expression

From patent US20040110287A1, “Multi-step method for the differentiation of insulin positive, glucose responsive cells” (ES Cell International Pte Ltd., priority 2002, published 2004)
